± gives the standard error. Fewer inactive variants are shown than the library holds.
B1: glmS ribozyme (parent)
chain: AUAAAAGCGCCAGAACUACAGAAAUGUAGUUGACGAGGAGGAGGUUUAUCGAAUUUUCGGCGGAUGCCUCCAAA

Columns and labels:
Settings in all cases: with glucosamine-6-phosphate
[1] = variants of: B1; assay: self-cleavage kobs at 40 uM GlcN6P; higher = faster cleavage; RNA array
Outline: (§1)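 Glucosamine-6-phosphate in HEPES/KCl/Mg(OAc)2 buffer, at 40 μM to 10 mM, was flowed over barcoded ribozyme variants transcribed in situ by E. coli RNA polymerase on sequenced MiSeq chips. Tracking was through a hybridised Cy3 probe at 37 °C. kobs, kcat and KM came from exponential decay fits and weighted Michaelis–Menten fits of normalised per-tile medians.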

[2] = variants of: B1; assay: self-cleavage kobs at 160 uM GlcN6P; higher = faster cleavage; RNA array
Outline: as §1

[3] = variants of: B1; assay: self-cleavage kobs at 640 uM GlcN6P; higher = faster cleavage; RNA array
Outline: as §1

[4] = variants of: B1; assay: self-cleavage kobs at 2500 uM GlcN6P; higher = faster cleavage; RNA array
Outline: as §1

[5] = variants of: B1; assay: self-cleavage kobs at 10000 uM GlcN6P; higher = faster cleavage; RNA array
Outline: as §1

Row | Variant | self-cleavage kobs at 40 uM GlcN6P [1] | self-cleavage kobs at 160 uM GlcN6P [2] | self-cleavage kobs at 640 uM GlcN6P [3] | self-cleavage kobs at 2500 uM GlcN6P [4] | self-cleavage kobs at 10000 uM GlcN6P [5]
1 | U54G C68U | 0.000327 ± 2.5e-05 s⁻¹ | 0.000869 ± 0.00021 s⁻¹ | 0.000824 ± 0.00012 s⁻¹ | 0.0036 ± 0.00084 s⁻¹ | 0.00395 ± 0.00053 s⁻¹
2 | C11G G37C | < 1e-05 s⁻¹ |  |  |  | < 1e-05 s⁻¹
3 | A12U U45A C58G C71G | < 1e-05 s⁻¹ |  |  | 4.36e-05 ± 1.4e-05 s⁻¹ | 3.15e-05 ± 1.5e-05 s⁻¹
4 | A52U A64G C70A | < 1e-05 s⁻¹ |  |  |  | 
5 | C34U G41U G62U | < 1e-05 s⁻¹ |  |  |  | 
6 | A14U A52C | < 1e-05 s⁻¹ | < 1e-05 s⁻¹ |  |  | 
7 | U31G G32C G38U G43U G59A G63A U69A | < 1e-05 s⁻¹ |  |  |  | 
8 | C10G U31C G35U | < 1e-05 s⁻¹ |  |  |  | < 1e-05 s⁻¹
9 | A6G U31A G32U | < 1e-05 s⁻¹ | < 1e-05 s⁻¹ | < 1e-05 s⁻¹ | < 1e-05 s⁻¹ | < 1e-05 s⁻¹
10 | U45A U47G U57A | < 1e-05 s⁻¹ |  |  |  | 0.000108 ± 2.3e-05 s⁻¹
11 | A6U G44C | < 1e-05 s⁻¹ | < 1e-05 s⁻¹ | < 1e-05 s⁻¹ | < 1e-05 s⁻¹ | 
12 | G29U U49A U57C C70G | < 1e-05 s⁻¹ |  |  |  | 
13 | A42G C67U | 0.000328 ± 4.2e-05 s⁻¹ | 0.00136 ± 0.00031 s⁻¹ | 0.00155 ± 0.00035 s⁻¹ | 0.00245 ± 0.00057 s⁻¹ | 0.00807 ± 0.0016 s⁻¹
14 | C10U C11G | < 1e-05 s⁻¹ |  | < 1e-05 s⁻¹ | < 1e-05 s⁻¹ | < 1e-05 s⁻¹
15 | A12U A42G C50U C71G | < 1e-05 s⁻¹ |  |  |  | < 1e-05 s⁻¹
16 | A6U C11U G26U U56C | < 1e-05 s⁻¹ |  |  |  | 
17 | C11U G29U C34U A53U U56A | < 1e-05 s⁻¹ |  |  | < 1e-05 s⁻¹ | 
18 | C11G U30C U31G | < 1e-05 s⁻¹ |  |  |  | 
19 | A6G A15U C34A | < 1e-05 s⁻¹ | < 1e-05 s⁻¹ | < 1e-05 s⁻¹ | < 1e-05 s⁻¹ | < 1e-05 s⁻¹
20 | A12U C16U | 0.00238 ± 0.0003 s⁻¹ | 0.00439 ± 0.00083 s⁻¹ | 0.0232 ± 0.0037 s⁻¹ | 0.076 ± 0.027 s⁻¹ | 0.0879 ± 0.035 s⁻¹
21 | G7U G43U C50U G51C | < 1e-05 s⁻¹ |  |  |  | < 1e-05 s⁻¹
22 | A42C G43C C50U C67U | < 1e-05 s⁻¹ |  |  |  | 
23 | U30A U45C A48C | < 1e-05 s⁻¹ |  |  |  | 
24 | G7C A15C | < 1e-05 s⁻¹ | < 1e-05 s⁻¹ | < 1e-05 s⁻¹ | < 1e-05 s⁻¹ | < 1e-05 s⁻¹
25 | C10A G37C A42C C70A | < 1e-05 s⁻¹ |  |  |  | 

Source: the supplement of paper PMC7125110
